Consider one substance from patent publication US20200063132A1.

For the test, the target named is human Mannose 6-Phosphate Receptor (M6PR, also known as IGF2R), endogenous on HUVEC and hCMEC/D3 cells (human) (UniProt P11717). Put plainly: cell-based or functional assay.
human Mannose 6-Phosphate Receptor (M6PR, also known as IGF2R), endogenous on HUVEC and hCMEC/D3 cells (human), sequence (P11717 41-2491): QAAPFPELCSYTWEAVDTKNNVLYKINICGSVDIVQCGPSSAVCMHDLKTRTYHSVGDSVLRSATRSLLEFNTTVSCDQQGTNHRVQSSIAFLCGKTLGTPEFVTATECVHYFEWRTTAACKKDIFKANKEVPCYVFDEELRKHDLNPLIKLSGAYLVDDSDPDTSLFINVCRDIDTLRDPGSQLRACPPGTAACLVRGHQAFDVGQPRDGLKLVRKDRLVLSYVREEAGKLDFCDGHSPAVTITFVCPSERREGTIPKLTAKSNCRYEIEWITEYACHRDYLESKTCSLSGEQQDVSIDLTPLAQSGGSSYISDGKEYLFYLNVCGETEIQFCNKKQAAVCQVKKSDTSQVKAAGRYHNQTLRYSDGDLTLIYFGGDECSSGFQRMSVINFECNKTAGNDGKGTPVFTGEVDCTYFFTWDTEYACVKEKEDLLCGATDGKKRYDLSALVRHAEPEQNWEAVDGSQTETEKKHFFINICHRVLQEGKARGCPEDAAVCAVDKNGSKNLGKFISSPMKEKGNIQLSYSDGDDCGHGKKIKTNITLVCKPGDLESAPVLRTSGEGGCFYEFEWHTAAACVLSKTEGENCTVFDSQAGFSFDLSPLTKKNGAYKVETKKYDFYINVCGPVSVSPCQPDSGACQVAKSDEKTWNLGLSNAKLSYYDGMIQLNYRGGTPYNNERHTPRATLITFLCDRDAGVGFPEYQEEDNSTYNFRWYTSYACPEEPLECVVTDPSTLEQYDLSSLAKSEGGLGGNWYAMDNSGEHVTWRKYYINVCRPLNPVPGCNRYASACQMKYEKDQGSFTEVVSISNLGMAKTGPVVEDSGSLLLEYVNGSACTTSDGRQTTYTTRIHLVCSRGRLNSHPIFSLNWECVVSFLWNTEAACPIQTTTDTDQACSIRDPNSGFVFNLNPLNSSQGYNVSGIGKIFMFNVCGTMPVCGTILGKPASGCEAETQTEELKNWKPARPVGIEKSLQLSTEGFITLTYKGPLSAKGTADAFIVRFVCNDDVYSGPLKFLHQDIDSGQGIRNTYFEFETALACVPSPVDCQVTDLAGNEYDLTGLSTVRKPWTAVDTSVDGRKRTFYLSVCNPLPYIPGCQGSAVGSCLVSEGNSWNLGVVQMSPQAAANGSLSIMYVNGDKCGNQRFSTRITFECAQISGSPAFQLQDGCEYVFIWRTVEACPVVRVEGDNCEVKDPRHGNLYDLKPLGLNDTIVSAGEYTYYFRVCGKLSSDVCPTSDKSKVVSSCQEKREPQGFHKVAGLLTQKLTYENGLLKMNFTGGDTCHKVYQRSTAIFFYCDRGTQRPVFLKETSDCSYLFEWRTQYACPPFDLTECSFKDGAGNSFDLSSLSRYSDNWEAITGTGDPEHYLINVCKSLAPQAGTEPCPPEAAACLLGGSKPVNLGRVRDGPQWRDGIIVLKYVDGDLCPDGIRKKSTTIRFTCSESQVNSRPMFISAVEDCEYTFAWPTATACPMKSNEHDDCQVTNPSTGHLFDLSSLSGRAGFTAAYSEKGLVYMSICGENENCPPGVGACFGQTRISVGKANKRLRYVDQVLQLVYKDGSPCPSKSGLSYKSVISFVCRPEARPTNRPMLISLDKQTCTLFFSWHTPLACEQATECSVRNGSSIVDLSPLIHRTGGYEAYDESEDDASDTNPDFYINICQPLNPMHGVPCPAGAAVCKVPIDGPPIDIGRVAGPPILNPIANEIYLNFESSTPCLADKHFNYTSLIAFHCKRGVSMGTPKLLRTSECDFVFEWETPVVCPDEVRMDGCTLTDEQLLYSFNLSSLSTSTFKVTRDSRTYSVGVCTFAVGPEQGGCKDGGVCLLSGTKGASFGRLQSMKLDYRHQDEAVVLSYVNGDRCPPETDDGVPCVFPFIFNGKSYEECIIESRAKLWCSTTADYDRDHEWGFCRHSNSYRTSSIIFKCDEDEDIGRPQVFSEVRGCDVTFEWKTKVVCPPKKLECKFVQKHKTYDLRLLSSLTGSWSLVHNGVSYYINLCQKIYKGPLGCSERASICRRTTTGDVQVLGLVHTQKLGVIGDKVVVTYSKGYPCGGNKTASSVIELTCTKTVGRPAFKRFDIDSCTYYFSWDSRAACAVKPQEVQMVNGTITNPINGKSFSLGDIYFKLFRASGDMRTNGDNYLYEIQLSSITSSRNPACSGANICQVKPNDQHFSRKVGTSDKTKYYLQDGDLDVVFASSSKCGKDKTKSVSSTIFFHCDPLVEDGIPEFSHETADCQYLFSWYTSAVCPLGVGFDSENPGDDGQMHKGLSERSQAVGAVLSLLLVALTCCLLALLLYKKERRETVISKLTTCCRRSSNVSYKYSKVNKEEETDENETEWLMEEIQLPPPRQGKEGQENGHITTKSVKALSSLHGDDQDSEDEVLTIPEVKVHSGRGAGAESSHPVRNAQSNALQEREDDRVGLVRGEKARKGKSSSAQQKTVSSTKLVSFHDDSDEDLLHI

As for “IDUA-myc fusion protein (human α-L-iduronidase with myc tag, from conditioned medium of HEK 293-based cells stably overexpressing human IDUA cDNA) (from UniProt P35475 28-653) (enzyme)”, the IC50 of the M6P inhibitor (mannose 6-phosphate, a small molecule) on uptake of IDUA-myc by HUVEC, 1 h, intracellular IDUA activity is 348 µM and the IC50 of the M6P inhibitor (mannose 6-phosphate, a small molecule) on uptake of IDUA-myc by hCMEC/D3 cells, 1 h, intracellular IDUA activity was 57.2 µM.
